The record followed here is paper PMC4978539.

Common to all, as to test: proximity ligation
The target of experiment [1] is HIV-1 Gag with the CA mutations Q7A/Q9A, expressed from a proviral point mutant (HIV-1).
Experiment [2] concerns the target HIV-1 Gag with the CA mutation G89A, expressed from a proviral point mutant (HIV-1).
In experiment [3] the target is HIV-1 Gag, wild type, expressed from the proviral clone pNL4-3 (HIV-1).
The target in the next experiment is mCherry-Gag (HIV-1).
For a further experiment, the target named is mCh-GagQ7A/Q9A (HIV-1).

Cyclophilin A, sequence (P62937 whole entry): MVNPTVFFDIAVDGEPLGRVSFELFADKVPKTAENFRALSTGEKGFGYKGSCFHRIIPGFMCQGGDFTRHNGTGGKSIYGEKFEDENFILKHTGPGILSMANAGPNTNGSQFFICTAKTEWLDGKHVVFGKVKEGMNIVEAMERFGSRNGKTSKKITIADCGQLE
Ras-GAP SH3 domain-binding protein (G3BP1), endogenous, sequence (Q13283 whole entry, the tested form may be a part): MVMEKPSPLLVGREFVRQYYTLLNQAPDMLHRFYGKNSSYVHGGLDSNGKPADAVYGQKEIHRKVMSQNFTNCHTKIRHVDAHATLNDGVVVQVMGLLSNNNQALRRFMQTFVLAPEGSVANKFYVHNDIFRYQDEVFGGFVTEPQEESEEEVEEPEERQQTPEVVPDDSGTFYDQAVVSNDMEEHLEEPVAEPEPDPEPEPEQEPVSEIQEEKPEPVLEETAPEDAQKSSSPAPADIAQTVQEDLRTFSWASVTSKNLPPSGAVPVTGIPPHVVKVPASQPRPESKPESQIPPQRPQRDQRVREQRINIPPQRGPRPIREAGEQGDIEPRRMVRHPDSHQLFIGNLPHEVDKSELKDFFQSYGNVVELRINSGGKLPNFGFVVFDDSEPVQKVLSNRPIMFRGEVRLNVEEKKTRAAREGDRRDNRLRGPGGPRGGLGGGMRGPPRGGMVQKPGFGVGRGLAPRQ

As to “Cyclophilin A (from UniProt P62937 1-165) (natural protein)”, the PLA spots/cell in experiment [1] was determined as 27.4 spots/cell; in experiment [2], 18.7 spots/cell; in experiment [3] it was 60.3 spots/cell.
“Ras-GAP SH3 domain-binding protein (G3BP1), endogenous (from UniProt Q13283 1-466) (natural protein)”: the PLA spots/cell was determined as 107 spots/cell with mCherry-Gag (HIV-1) and 33.8 spots/cell with mCh-GagQ7A/Q9A (HIV-1).
“eukaryotic elongation factor 2, endogenous (from UniProt P13639 1-858) (natural protein)”: the PLA spots/cell was 5.1 spots/cell in experiment [1], 3.44 spots/cell in experiment [2] and 11.6 spots/cell in experiment [3].
